No end group written: not given here.
T1: mouse IL-1β peptide 21LFFEVD26 (mouse)
T1 construct: Liberated C-terminus of the noncanonical cleavage site, with free C-terminal Asp
T1 peptide: LFFEVD-OH

T2: IL-18 peptide 30GDLESD35
T2 construct: Liberated C-terminus of IL-18, with free C-terminal Asp
T2 peptide: GDLESD


Legend:
[1] = target: T1, mouse IL-1β peptide 21LFFEVD26; experiment: X-ray co-crystal structure
[2] = target: T2, IL-18 peptide 30GDLESD35; experiment: X-ray co-crystal structure

Binder | binding result [1] | binding result [2]
CJ11 Fab (Fab, V domains shown, also called its Fab) VH: QSVEESGGGLVTPGTPLTLTCTVSGIDLSRYAMSWVRQAPGKGLEWIGIFGSLGGIFYASWAKGRFTISKTSPTTVDLKITSPTTEDTATYFCARMPYTTDRDFWGPGTLVTVSS VL: DIVMTQTPSSTSAAVGGTVTITCQASQSVANNNYLKWYQQKRGQPPKQLIYSVSTLASGVPSRFKGSGSGTQFTLTISDLECDDAATYYCSGYFNNNIGAFGGGTKLEIK | binds | –
CJ11 Fab modified by reductive lysine methylation (Fab, V domains shown, lysines modified by reductive methylation) VH: QSVEESGGGLVTPGTPLTLTCTVSGIDLSRYAMSWVRQAPGKGLEWIGIFGSLGGIFYASWAKGRFTISKTSPTTVDLKITSPTTEDTATYFCARMPYTTDRDFWGPGTLVTVSS VL: DIVMTQTPSSTSAAVGGTVTITCQASQSVANNNYLKWYQQKRGQPPKQLIYSVSTLASGVPSRFKGSGSGTQFTLTISDLECDDAATYYCSGYFNNNIGAFGGGTKLEIK | – | binds
